# Results taken from patent US20110158985A1 (published 2011).
# Where a chain is given by its changes, count along the chain named. In names and notes the source's numbering stands. Several values for one entry are separate records, joined by “and”; a condition that tells them apart may be missing. Equal values may be shown once. Read-outs that look alike come from different tables or passages of the source.
# T1: RSV F glycoprotein (NUF4) (respiratory syncytial virus)
# T1 chain 1: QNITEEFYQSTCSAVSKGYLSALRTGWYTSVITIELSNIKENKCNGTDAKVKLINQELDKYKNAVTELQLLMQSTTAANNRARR
# T1 chain 2: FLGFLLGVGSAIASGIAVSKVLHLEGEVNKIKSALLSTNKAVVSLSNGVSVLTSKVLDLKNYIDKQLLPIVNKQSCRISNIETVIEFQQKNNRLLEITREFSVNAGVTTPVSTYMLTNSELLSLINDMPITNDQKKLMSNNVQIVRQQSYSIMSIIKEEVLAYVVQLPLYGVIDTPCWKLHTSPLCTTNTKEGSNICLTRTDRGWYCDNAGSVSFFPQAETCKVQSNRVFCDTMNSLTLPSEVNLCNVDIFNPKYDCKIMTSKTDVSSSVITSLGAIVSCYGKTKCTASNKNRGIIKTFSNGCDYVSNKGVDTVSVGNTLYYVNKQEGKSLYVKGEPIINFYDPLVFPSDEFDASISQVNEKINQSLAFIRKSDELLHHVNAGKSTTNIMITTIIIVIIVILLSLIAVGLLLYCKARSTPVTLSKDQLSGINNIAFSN
# T2: murine FcRn (mouse, UniProt P01887 21-119)
# T2 construct: also called mouse FcRn; muFcRn
# T2 sequence: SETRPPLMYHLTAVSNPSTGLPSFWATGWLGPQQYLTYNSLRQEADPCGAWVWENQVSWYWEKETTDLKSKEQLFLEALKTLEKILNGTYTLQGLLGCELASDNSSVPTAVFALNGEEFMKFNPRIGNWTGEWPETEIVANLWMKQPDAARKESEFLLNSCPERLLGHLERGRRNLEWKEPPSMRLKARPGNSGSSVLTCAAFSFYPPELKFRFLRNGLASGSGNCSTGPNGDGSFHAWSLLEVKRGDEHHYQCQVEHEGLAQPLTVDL
# T2 sequence (b2m): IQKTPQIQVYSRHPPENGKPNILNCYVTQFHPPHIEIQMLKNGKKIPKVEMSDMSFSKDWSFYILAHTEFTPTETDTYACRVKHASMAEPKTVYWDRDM
# B1: A12a6 IgG (antibody, V domains shown)
# VH: QVTLRESGPALVKPTQTLTLTCTFSGFSLSTAGMSVGWIRQPPGKALEWLADIWWDGKKDYNPSLKDRLTISKDTSKNQVVLKVTNMDPADTATYYCARDMIFNFYFDVWGQGTTVTVSS
# VL: DIQMTQSPSTLSASVGDRVTITCSASSRVGYMHWYQQKPGKAPKLLIYDTFKLSSGVPSRFSGSGSGTEFTLTISSLQPDDFATYYCFQGSGYPFTFGGGTKVEIKR
# B2: P11d4 IgG (antibody, V domains shown)
# VH: B1 VH with A32P, D60H, F105W
# VL: B1 VL with A25P, F51M, K52R, S54A
# B3: A4B4 IgG (antibody, V domains shown)
# VH: B1 VH with G57D, D60H
# VL: B1 VL with K52F, S54D
# B4: A4B4L1FR-S28R (MEDI-524) (antibody, human IgG1, kappa)
# heavy: not shown
# light: DIQMTQSPSTLSASVGDRVTITCSASSRVGYMHWYQQKPGKAPKLLIYDTSKLASGVPSRFSGSGSGTEFTLTISSLQPDDFATYYCFQGSGYPFTFGGGTKVEIKRTVAAPSVFIFPPSDEQLKSGTASVVCLLNNFYPREAKVQWKVDNALQSGNSQESVTEQDSKDSTYSLSSTLTLSKADYEKHKVYACEVTHQGLSSPVTKSFNRGEC
# B5: palivizumab (IgG) (antibody)
# heavy: not shown
# light: B4 light with S24K, A25C, S26Q, S27L, R28S, V103L
# notes: also called SYNAGIS
# B6: human IgG1 MEDI-493 (palivizumab) M252Y/S254T/T256E (antibody)
# heavy: QVTLRESGPALVKPTQTLTLTCTFSGFSLSTSGMSVGWIRQPPGKALEWLADIWWDDKKDYNPSLKSRLTISKDTSKNQVVLKVTNMDPADTATYYCARSMITNWYFDVWGAGTTVTVSSASTKGPSVFPLAPSSKSTSGGTAALGCLVKDYFPEPVTVSWNSGALTSGVHTFPAVLQSSGLYSLSSVVTVPSSSLGTQTYICNVNHKPSNTKVDKRVEPKSCDKTHTCPPCPAPELLGGPSVFLFPPKPKDTLYITREPEVTCVVVDVSHEDPEVKFNWYVDGVEVHNAKTKPREEQYNSTYRVVSVLTVLHQDWLNGKEYKCKVSNKALPAPIEKTISKAKGQPREPQVYTLPPSREEMTKNQVSLTCLVKGFYPSDIAVEWESNGQPENNYKTTPPVLDSDGSFFLYSKLTVDKSRWQQGNVFSCSVMHEALHNHYTQKSLSLSPGK
# light: B4 light with S24K, A25C, S26Q, S27L, R28S, V103L
# notes: also called IgG1/M252Y/S254T/T256E
# B7: human IgG1 MEDI-493 (palivizumab) I253A (antibody)
# heavy: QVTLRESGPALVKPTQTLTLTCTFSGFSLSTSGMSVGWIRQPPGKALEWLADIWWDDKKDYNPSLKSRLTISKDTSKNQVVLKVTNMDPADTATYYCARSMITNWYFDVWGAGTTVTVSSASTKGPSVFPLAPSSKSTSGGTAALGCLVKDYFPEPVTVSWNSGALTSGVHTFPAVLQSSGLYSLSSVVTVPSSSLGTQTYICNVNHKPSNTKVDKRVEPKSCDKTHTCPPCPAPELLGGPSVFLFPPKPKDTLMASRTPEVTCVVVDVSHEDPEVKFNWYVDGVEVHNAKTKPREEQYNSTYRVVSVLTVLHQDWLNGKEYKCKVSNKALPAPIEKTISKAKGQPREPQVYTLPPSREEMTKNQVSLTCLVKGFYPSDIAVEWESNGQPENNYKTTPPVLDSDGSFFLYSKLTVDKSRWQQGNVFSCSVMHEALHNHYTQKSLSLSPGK
# light: B4 light with S24K, A25C, S26Q, S27L, R28S, V103L
# notes: also called 1253A
# B8: MEDI-524-YTE (antibody, human IgG1, kappa)
# heavy: B6 heavy with S32A, D60H, S67D, S100D, T103F, W105F, A112Q
# light: B4 light
# What was measured:
# [1] = molecular target: T3, recombinant C-terminally truncated RSV (A2 strain) F protein (RSV (A2 strain), UniProt P03420 26-524); assay: SPR (BIAcore)
# T3 construct: extracellular domain; also called truncated F protein; extracellular domain of the F protein from RSV A2
# Target sequence in this assay (P03420 137-524): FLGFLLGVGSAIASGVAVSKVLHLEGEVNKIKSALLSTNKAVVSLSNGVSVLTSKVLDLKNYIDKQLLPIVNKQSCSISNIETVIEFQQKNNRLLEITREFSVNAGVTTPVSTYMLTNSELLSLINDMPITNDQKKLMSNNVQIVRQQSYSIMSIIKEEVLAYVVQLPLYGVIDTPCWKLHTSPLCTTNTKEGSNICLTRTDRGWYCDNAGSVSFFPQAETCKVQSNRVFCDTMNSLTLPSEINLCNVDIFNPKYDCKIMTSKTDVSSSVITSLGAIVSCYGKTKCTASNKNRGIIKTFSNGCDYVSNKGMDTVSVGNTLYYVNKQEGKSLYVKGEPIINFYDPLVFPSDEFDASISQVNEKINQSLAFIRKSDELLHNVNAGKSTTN
# [2] = molecular target: T4, F protein of RSV (Long strain) (RSV (Long strain), UniProt P12568 26-574); assay: cell-based or functional assay
# [3] = molecular target: T4, F protein of RSV (Long strain); assay: cell-based or functional assay; remark: listed apart in the source
# [4] = molecular target: T1, RSV F glycoprotein (NUF4); assay: SPR (BIAcore), mAb vs NUF4 (1:1)
# [5] = molecular target: T1, RSV F glycoprotein (NUF4); assay: SPR (BIAcore), mAb vs NUF4 (2:1)
# Bac-F = Bac-F (respiratory syncytial virus); assay: SPR (BIAcore), mAb vs Bac-F (1:1)
# [6] = molecular target: T3, recombinant C-terminally truncated RSV …; assay: SPR (BIAcore), IgG over immobilised F
# [7] = molecular target: T3, recombinant C-terminally truncated RSV …; assay: SPR (BIAcore), IgG over immobilised F; remark: listed apart in the source
# Target sequence in this assay (P03420 137-524): as above
# [8] = molecular target: T1, RSV F glycoprotein (NUF4); assay: ITC, NUF4 titrated into antibody, 35 C
# Experimental: The binding thermodynamics of the antibodies were determined from ITC measurements using a Microcal, Inc. VP Titration Calorimeter. The VP titration calorimeter consists of a matched pair of sample and reference vessels (1.409 ml) enclosed in an adiabatic enclosure and a rotating stirrer-syringe for titrating ligand solutions into the sample vessel. The ITC measurements were performed at 25° C. and 35° C. The sample vessel contained the antibody in the phosphate buffer while the reference vessel contained just the buffer solution. The phosphate buffer solution was saline 67 mM PO₄ at pH 7.4 from HyClone, Inc. Five or ten μl aliquots of the 0.05 to 0.1 mM NUF4 solution were titrated 3 to 4 minutes apart into the antibody sample solution until the binding was saturated as evident by the lack of a heat exchange signal. […] This was attributed to a heat of dilution of the NUF4 titrant and was subtracted from the titrant heats obtained during the titration prior to analysis of the data.
# A non-linear, least square minimization software program from Microcal, Inc., Origin 5.0, was used to fit the incremental heat of the ith titration (ΔQ (i)) of the total heat, Qₜ, to the total titrant concentration, Xₜ, according to the following equations (I),
# [9] = molecular target: T4, F protein of RSV (Long strain); assay: cell-based or functional assay; remark: listed apart in the source
# human FcRn [10] = molecular target: T5, human FcRn (human); assay: SPR (BIAcore 3000), FcRn over immobilised IgG, pH 6.0, one-site fit
# T5 construct: also called recombinant human FcRn
# Experimental: (§1) Human and Cynomolgus Monkey FcRn were buffer-exchanged against 50 mM Phosphate Buffered Saline (PBS) pH 6.0 or 7.4 containing 0.05% Tween 20. Dilutions were made in the same buffers. […] FcRn was also flowed over an uncoated cell and the sensorgrams from these blank runs subtracted from those obtained with IgG-coupled chips. Runs were analyzed using the software BIAevaluation 3.1 (Pharmacia). Dissociation constants (Kds) were determined by fitting the binding isotherms to a one-site binding model using GraphPad Prism (GraphPad Software, Inc., CA). Errors were estimated as the mean standard deviation for at least 2 independent determinations.
# Cynomolgus Monkey FcRn [11] = molecular target: T6, Cynomolgus Monkey FcRn (Cynomolgus Monkey, UniProt Q8SPV9 24-290; Q8SPW0 21-119); assay: as above
# T6 construct: also called Cynomolgus FcRn
# Experimental: as §1
# [12] = molecular target: T4, F protein of RSV (Long strain); assay: cell-based or functional assay; remark: listed apart in the source
# [13] = molecular target: T4, F protein of RSV (Long strain); assay: cell-based or functional assay; remark: listed apart in the source
# human FcRn [14] = molecular target: T5, human FcRn; assay: SPR (BIAcore 3000), FcRn over immobilised IgG1, pH 6.0, Scatchard
# Experimental: (§2) IgG1 variants was monitored by surface plasmon resonance detection using a BIAcore 3000 instrument (Pharmacia Biosensor, Uppsala, Sweden). […] The protein concentrations ranged from 3-5 μg/ml in 10 mM sodium acetate, pH 5.0. The activation period was set for 7 minutes at a flow rate of 10 μl/min and the immobilization period was set to between 10 and 20 minutes at a flow rate of 10 μl/min. […] Human and murine FcRn were buffer exchanged against 50 mM PBS buffer pH 6.0 containing 0.05% Tween 20. Dilutions were made in the same buffer. All binding experiments were performed at 25° C. with concentrations ranging from 120 to 1 μg/ml at a flow rate of 5 to 10 μl/min; data were collected for 25 to 50 minutes and three 1-minute pulses of PBS buffer pH 7.2 were used to regenerate the surfaces. FcRn was also flowed over an uncoated cell and the sensorgrams from these blank runs subtracted from those obtained with IgG1-coupled chips. Runs were analyzed using the software BIAevaluation 3.1 (Pharmacia). Association constants (KAs) were determined from Scatchard analysis by measuring the concentration of free reactants and complex at equilibrium after correction for nonspecific binding.
# murine FcRn [15] = molecular target: T2, murine FcRn; assay: as above
# Experimental: as §2
# [16] = molecular target: T3, recombinant C-terminally truncated RSV …; assay: SPR (BIAcore 3000), F immobilised at low density, 1:1 Langmuir fit
# Target sequence in this assay (P03420 137-524): as above
# Experimental: Purified F protein was covalently coupled to an N-hydroxysuccinimide-N-ethyl-N′-[3-diethylaminopropyl]-carbodiimide (EDC/NHS) activated CM5 sensor chip at a low protein density according to the manufacturer's protocol; unreacted active ester groups were blocked with 1 M ethanolamine. For reference purposes, a blank surface, containing no antigen, was prepared under identical immobilization conditions.
# For kinetic measurements, a serial 2-fold dilution series of each mAb from 100 nm-0.2 nm, made in instrument buffer (HBS/Tween-20, BIAcore, Inc.), was injected over the F-protein and reference cell surfaces, which are connected in series. In each analysis, following the dissociation phase, the remaining bound antibody was removed from the sensor chip by passing a brief pulse of 100 mM HCl over the surface. Once an entire data set was collected, the resulting binding curves were globally fitted to a 1:1 Langmuir binding model using BIAevaluation software (BIAcore, Inc., Piscataway, N.J.). This algorithm calculates both the association rate (kₒₙ) and the dissociation rate (koff), from which the apparent equilibrium binding constant, Kd, for each antibody was deduced as the ratio of the two rate constants, koff/kₒₙ.
# murine FcRn [17] = molecular target: T2, murine FcRn; assay: SPR (BIAcore), murine FcRn over immobilised IgG1, Scatchard
# Experimental: Runs were analyzed using the software BIAevaluation 3.1 (Pharmacia). Association constants (KAs) were determined from Scatchard analysis by measuring the concentration of free reactants and complex at equilibrium after correction for nonspecific binding. […] The concentration of free analyte (human or murine FcRn) is equal to the bulk analyte concentration since analyte is constantly replenished during sample injection. The concentration of free ligand on the surface of the sensor chip can be derived from the concentration of the complex and from the total binding capacity of the surface as KA=Req/C(Rₘₐₓ−Req) where C is the free analyte concentration, Req is the steady-state response, and Rₘₐₓ is the total surface binding capacity. Rearranging, the equation reads: Req/C=KA Rₘₐₓ−KA Req.
# To estimate apparent KAs, concentrations of FcRn ranging from 120 to 1 μg/ml were used. In all cases, equilibrium (or near-equilibrium) binding levels were reached within 50 minutes. To estimate the increase in RU resulting from the non specific effect of protein on the bulk refractive index, binding of FcRn to an uncoated cell was measured and the sensorgrams from these blank runs subtracted from those obtained with IgG1-coupled chips. The plots were all linear, and apparent KAs were calculated from the relevant slopes. […]
# human FcRn [18] = molecular target: T5, human FcRn; assay: SPR (BIAcore), FcRn over immobilised IgG1, pH 6.0
# Experimental: as §2
# murine FcRn [19] = molecular target: T2, murine FcRn; assay: SPR (BIAcore), FcRn over immobilised IgG1, pH 6.0
# Experimental: as §2
# human FcRn [20] = molecular target: T5, human FcRn; assay: SPR (BIAcore 3000), FcRn over immobilised IgG
# Experimental: as §1
# Cynomolgus Monkey FcRn [21] = molecular target: T6, Cynomolgus Monkey FcRn; assay: SPR (BIAcore 3000), FcRn over immobilised IgG
# Experimental: as §1
# T5 sequence (chain, as listed by the source limits assumed, chain 1 of 2): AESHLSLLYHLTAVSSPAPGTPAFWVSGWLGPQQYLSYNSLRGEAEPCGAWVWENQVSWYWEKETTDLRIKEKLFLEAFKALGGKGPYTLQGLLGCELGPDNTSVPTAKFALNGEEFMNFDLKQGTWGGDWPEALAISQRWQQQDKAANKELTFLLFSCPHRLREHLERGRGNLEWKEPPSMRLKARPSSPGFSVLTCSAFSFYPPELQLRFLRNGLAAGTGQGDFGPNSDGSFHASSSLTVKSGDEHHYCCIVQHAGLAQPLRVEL
# T5 sequence (P61769 21-119 limits assumed, chain 2 of 2): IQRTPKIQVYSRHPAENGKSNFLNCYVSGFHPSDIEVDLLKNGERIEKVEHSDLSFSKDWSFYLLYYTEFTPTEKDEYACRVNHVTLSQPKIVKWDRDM
# T6 sequence (Q8SPV9 24-290 limits assumed, chain 1 of 2): as the sequence (chain, as listed by the source limits assumed, chain 1 of 2) above, with N39D, E44Q, G99S, S189G, S190N, L217M counted along it
# T6 sequence (Q8SPW0 21-119 limits assumed, chain 2 of 2): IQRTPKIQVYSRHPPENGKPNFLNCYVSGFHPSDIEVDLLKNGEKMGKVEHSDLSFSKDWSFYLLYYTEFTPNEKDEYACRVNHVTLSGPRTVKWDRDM
Binder,Mean IC50 (Control) [2],Mean IC50 (Curve) [2],"Microneutralization IC50, IgG [3]",Kd [4],fold in parentheses (palivizumab = 1) [4],koff [4],kon [4],Kd [5],fold in parentheses (palivizumab = 1) [5],koff [5],kon [5],Kd (Bac-F),Kd [6],koff [6],kon [6],also measured
B1,0.0354 µg/mL,0.0357 µg/mL,0.0357 µg/ml and 0.24 nM,0.73 nM,12 fold,0.000291 s⁻¹,400000 M⁻¹ s⁻¹,1.87 nM,167 fold,0.000408 s⁻¹,218000 M⁻¹ s⁻¹,0.04 nM,0.036 nM,1.65e-05 s⁻¹,460000 M⁻¹ s⁻¹,fold improvement in koff upon IgG conversion (against its Fab) [1]: 13 fold; fold in parentheses (palivizumab = 1) (Bac-F): 98 fold
B2,0.0289 µg/mL,0.0217 µg/mL,0.0217 µg/ml and 0.14 nM,0.85 nM,10 fold,0.000766 s⁻¹,904000 M⁻¹ s⁻¹,8.55 nM,36 fold,0.00313 s⁻¹,366000 M⁻¹ s⁻¹,0.62 nM,0.62 nM,0.000289 s⁻¹,466000 M⁻¹ s⁻¹,fold improvement in kon over palivizumab [7]: 4 fold; fold in parentheses (palivizumab = 1) (Bac-F): 6 fold
B3,0.0154 µg/mL,0.0171 µg/mL,0.104 µg/ml and 0.069 nM,0.57 nM,15 fold,0.000282 s⁻¹,496000 M⁻¹ s⁻¹,2 nM,156 fold,0.000401 s⁻¹,203000 M⁻¹ s⁻¹,,0.027 nM,1.51e-05 s⁻¹,553000 M⁻¹ s⁻¹,fold improvement in affinity over palivizumab [7]: 125 fold; fold improvement in koff over palivizumab [7]: 28 fold; fold improvement in kon over palivizumab [7]: 4 fold; Ka [8]: 2.69e+08 M⁻¹; Kd [8]: ~3.7 nM; ΔHb [8]: 22.2 kcal/mol
B4,,,,,,,,,,,,,,,,"RSV microneutralization, average IC50 [9]: 0.018 µg/mL; Kd (human FcRn [10]): 2250 nM; Kd (Cynomolgus Monkey FcRn [11]): 1200 nM"
B5,0.535 µg/mL,0.453 µg/mL,0.453 µg/ml and 3.02 nM,,,,,,,,,3.9 nM,3.39 nM,,,"Microneutralization IC50 [9]: 3.6 nM; RSV microneutralization, average IC50 [9]: 0.315 µg/mL; IC50 [12]: 3.57 nM; Microneutralization IC50, IgG [13]: 0.453 µg/ml and 3.02 nM; Kd (human FcRn [14]): 2530 nM; Kd (murine FcRn [15]): 269 nM; Kd [16]: 3.46 nM"
B6,,,,,,,,,,,,,,,,Kd (murine FcRn [17]): 24 nM; Kd (murine FcRn [15]): 27 nM; ΔΔG (murine FcRn [15]): 1.4 kcal/mol
B7,,,,,,,,,,,,,,,,binding result (human FcRn [18]): no binding; binding result (murine FcRn [19]): no binding
B8,,,,,,,,,,,,,,,,fold affinity increase over MEDI-524 (human FcRn [20]): 11 fold; fold affinity increase over MEDI-524 (Cynomolgus Monkey FcRn [21]): 9 fold; Kd (human FcRn [10]): 210 nM; Kd (Cynomolgus Monkey FcRn [11]): 134 nM
